According to US20190375786A1, “STABLE PEPTIDES AND METHODS OF USE THEREOF” (Fred Hutchinson Cancer Research Center, priority 2016, published 2019):
“Also recorded” adds a separate entry of the source. Positions of bridges follow the written chain, without caps; N, C: chain ends. Residues, ends and D or L forms follow the SMILES beside them.

Tests used:
[1] = target: trypsin (Sus scrofa, UniProt P00761); assay: Trypsin digestion resistance of soluble peptide, RP-HPLC; type: in vitro ADME, porcine; design: purchased Sigma Aldrich 6567; settings: 500 U/ml trypsin (50 U per reaction), 30 minutes at 37.5° C.; HPLC
Procedure: (§1) Peptides were first suspended in 500 μl of ddH2O to a stock concentration of 2 mg/ml. Reactions were prepared by adding 12.5 μg of peptide from the stock solution to a 10 mM solution of DTT in PBS and allowed to incubate at room temperature for 30 minutes. Other reactions were prepared with 12.5 μg peptide and 500 U/ml trypsin in 25 mM Tris/75 mM NaCl buffer (pH 7.0) and incubated for 30 minutes at 37.5° C. These reactions were then quenched with 5 μg of soybean trypsin inhibitor (I) and, in some cases, 10 mM dithiothreitol (DTT). Reversed phase HPLC (RP-HPLC) was run on samples using an Agilent 1260 HPLC equipped with a C-18 Poroshell 120B column. Sample were analyzed by a gradient method with a mobile phase of Solvent A (water with 0.1% TFA) and Solvent B (acetonitrile with 0.1% TFA). Solvent B was ramped up from 5%-45% of the mobile phase over a period of 10 minutes. For testing pepsin digestion resistance, reactions were prepared with 12.5 μg peptide with or without 500 U/ml pepsin in simulated gastric fluid (SGF; pH 1.05; […] sodium chloride in 0.7% (v/v) hydrochloric acid) and were incubated for 30 minutes at 37.5° C. For testing temperature resistance, peptides were incubated at 70° C., 75° C., or 100° C. for one hour in 0.5 mM PBS, pelleted, and then the supernatant was analyzed by HPLC.
(§2) This example illustrates peptide stability in biological conditions including in the presence of reducing agents, proteases, oxidative conditions, acidic conditions, and simulated gastric fluids. […] Various peptides were suspended in 500 μl of ddH2O at a stock concentration of 2 mg/ml. This was then diluted in accord with the reaction conditions to prevent adverse buffering effects. Reactions were prepared with 12.5 μg peptide dissolved in solution and, in some samples, additionally suspended in a 10 mM solution of DTT, simulated gastric fluid (pH 1.05; […] sodium chloride in 0.7% (v/v) hydrochloric acid), 500 U pepsin (5000 U/ml pepsin), 50 U trypsin (500 U/ml trypsin) with 1 mg/ml inhibitor in PBS, or a combination of any of these conditions. All protease reactions were incubated for 30 min at room temperature and then quenched. Pepsin reactions were quenched by adding Tris base to a final concentration of 0.075 M. Trypsin reactions were quenched by adding excess soybean trypsin inhibitor. RP-HPLC was then run on samples using an Agilent 1260 HPLC equipped with a C-18 Poroshell 120B column. Sample were analyzed by a gradient method with a mobile phase of Solvent A (water with 0.1% TFA) and Solvent B (acetonitrile with 0.1% TFA). Solvent B was ramped up from 5%-45% of the mobile phase over a period of 10 minutes.
Soluble peptides were exposed to 500 U/mL porcine trypsin and analyzed by HPLC. Protease resistance was also assessed by using SDPR-displaying peptides. The SDPR vector is similar to the a surface display GFP FasL(SDGF) vector, but contains a C-terminal 6×His tag (SEQ ID NO: 180) and all basic or aromatic amino acid residues on the stalk removed. Protease resistance is then tested by incubation of cells displaying peptides with trypsin or chymotrypsin, followed by incubation in 10 mM DTT, and staining with an anti-6×His fluorophore-labeled antibody (“6×His” disclosed as SEQ ID NO: 180). If peptides are uncleaved, they retain the His tag and are stained with by the antibody. A control protease-sensitive knottin peptide (SK) was used as a positive control. Cells displaying peptides were treated with up to 40 μg/ml trypsin or chymotrypsin.
FIG. 21 illustrates high performance liquid chromatograph (HPLC) traces of peptides after trypsin digestion. […] The assay was carried out by reconstituting 1 mg porcine trypsin (Sigma Aldrich 6567) in 1 mL of 1 mM HCl. Trypsin was provided at a concentration of 10,000 u/mL and thus, 5 μl of stock solution was equivalent to using 50 U of trypsin in each reaction. Soybean trypsin inhibitor (SA T9128) was prepared at 1 mg/mL of in H2O. […]

[2] = target: pepsin (Sus scrofa, UniProt P00791); assay: Pepsin digestion resistance in simulated gastric fluid, RP-HPLC; type: in vitro ADME, porcine; design: purchased Sigma Aldrich P7012; settings: 500 U/ml pepsin (50 U per reaction) in SGF, 30 minutes at 37.5° C.; HPLC
Procedure: Peptides were first suspended in 500 ul of ddH2O to a stock concentration of 2 mg/ml. Reactions were prepared by adding 12.5 ug of peptide from the stock solution to a 10 mM solution of DTT in PBS and allowed to incubate at room temperature for 30 minutes. Other reactions were prepared with 12.5 μg peptide with or without 500 U/ml pepsin in simulated gastric fluid (SGF; pH 1.05; […] sodium chloride in 0.7% (v/v) hydrochloric acid) and were incubated for 30 minutes at 37.5° C. Some reactions were quenched with a final concentration of 100 mM Tris base and 10 mM dithiothreitol (DTT). Some reactions were performed in all of the above components, including simulated gastric fluid, pepsin, Tris, and DTT (referred to as SPTD). Reversed phase HPLC (RP-HPLC) was run on samples using an Agilent 1260 HPLC equipped with a C-18 Poroshell 120B column. Sample were analyzed by a gradient method with a mobile phase of Solvent A (water with 0.1% TFA) and Solvent B (acetonitrile with 0.1% TFA). Solvent B was ramped up from 5%-45% of the mobile phase over a period of 10 minutes. Peptides were detected at an absorbance of 214 nm and 280 nm.
as §1, §2
FIG. 20 illustrates high performance liquid chromatograph (HPLC) traces of peptides after pepsin digestion. […]

[3] = Resistance to elevated temperature, HPLC; type: physicochemical; settings: HPLC; for resistance to incubation at 70° C. (in words): 70° C. for 1 hour; for resistance to incubation at 100° C. (in words): 100° C. for 1 hour
Procedure: as §1
This example illustrates peptide stability at high temperatures. Peptides were first suspended in 500 μl of ddH2O to a stock concentration of 2 mg/ml. Reactions were prepared by adding 6.25 μl of peptide from the stock solution with 95 μl ddH2O and incubated at room temperature, 70° C., or 100° C. for one hour in a Thermocycler. RP-HPLC was then run on samples using an Agilent 1260 HPLC equipped with a C-18 Poroshell 120B column. Sample were analyzed by a gradient method with a mobile phase of Solvent A (water with 0.1% TFA) and Solvent B (acetonitrile with 0.1% TFA). Solvent B was ramped up from 5%-45% of the mobile phase over a period of 10 minutes.

Sequence of trypsin (P00761 9-231): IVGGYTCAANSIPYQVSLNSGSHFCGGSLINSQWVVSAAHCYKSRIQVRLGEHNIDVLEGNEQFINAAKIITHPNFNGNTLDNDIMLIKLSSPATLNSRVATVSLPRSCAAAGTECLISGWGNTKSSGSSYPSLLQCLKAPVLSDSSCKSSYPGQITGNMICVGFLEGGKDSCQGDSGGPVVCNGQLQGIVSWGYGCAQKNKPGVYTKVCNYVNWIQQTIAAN
Sequence of pepsin (P00791 60-385): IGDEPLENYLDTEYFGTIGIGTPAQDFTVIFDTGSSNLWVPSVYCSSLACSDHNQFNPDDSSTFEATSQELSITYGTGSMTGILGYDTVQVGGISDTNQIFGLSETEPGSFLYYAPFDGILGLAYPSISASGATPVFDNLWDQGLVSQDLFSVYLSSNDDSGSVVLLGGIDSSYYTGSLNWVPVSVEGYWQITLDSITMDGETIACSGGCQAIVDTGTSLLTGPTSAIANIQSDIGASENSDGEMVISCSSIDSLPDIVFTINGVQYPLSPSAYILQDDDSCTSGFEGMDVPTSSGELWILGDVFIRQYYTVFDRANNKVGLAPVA

| Compound | resistance to trypsin digestion (in words) [1] | resistance to pepsin digestion (in words) [2] | resistance to incubation at 70° C. (in words) [3] | resistance to incubation at 100° C. (in words) [3] |
| --- | --- | --- | --- | --- |
| CSCC[C@@H]1NC(=O)[C@@H]2CSSC[C@H](NC(=O)[C@H](CCCCN)NC(=O)[C@@H](NC(=O)[C@H](CC(=O)O)NC(=O)[C@@H](NC(=O)[C@H](Cc3ccccc3)NC(=O)[C@H](CCC(N)=O)NC(=O)[C@H](CO)NC(=O)CN)[C@@H](C)O)C(C)C)C(=O)N[C@@H]([C@@H](C)O)C(=O)NCC(=O)N[C@@H](CO)C(=O)N[C@@H](CCCCN)C(=O)N[C@@H](CCC(N)=O)C(=O)N[C@H]3CSSC[C@H](NC(=O)[C@H](CCCCN)NC(=O)CNC(=O)[C@H](CC(N)=O)NC1=O)C(=O)N[C@@H](CCCNC(=N)N)C(=O)N[C@H](C(=O)N[C@@H](Cc1ccc(O)cc1)C(=O)N[C@@H](CO)C(=O)O)CSSC[C@H](NC(=O)[C@H](C(C)C)NC(=O)[C@@H]1CCCN1C(=O)[C@H](Cc1c[nH]c4ccccc14)NC3=O)C(=O)N[C@@H](CCCCN)C(=O)N[C@@H](CCC(N)=O)C(=O)N[C@@H](CCSC)C(=O)N[C@@H](Cc1ccccc1)C(=O)NCC(=O)N[C@@H](CCCCN)C(=O)N1CCC[C@H]1C(=O)N[C@@H](CC(N)=O)C(=O)NCC(=O)N[C@@H](CCCCN)C(=O)N2 [SEQ ID NO: 12] (H-GSQFTDVKCTGSKQCWPVCKQMFGKPNGKCMNGKCRCYS-OH; disulfide 9-30, 15-35, 19-37) | moderately resistant | highly resistant |  |  |
| CC[C@H](C)[C@@H]1NC(=O)[C@@H](NC(=O)[C@H](CC(=O)O)NC(=O)[C@H](CCCCN)NC(=O)[C@H](CCC(=O)O)NC(=O)[C@H](CO)NC(=O)[C@H](CO)NC(=O)CN)CSSC[C@@H]2NC(=O)[C@@H]3CSSC[C@@H](C(=O)N[C@@H](CCCNC(=N)N)C(=O)O)NC(=O)[C@H](CCCNC(=N)N)NC(=O)[C@H](CCCCN)NC(=O)[C@H](CCC(=O)O)NC(=O)[C@@H]4CCCN4C(=O)[C@H](CC(N)=O)NC(=O)[C@H]([C@@H](C)O)NC(=O)CNC(=O)[C@H](CCCNC(=N)N)NC(=O)[C@H](CCCNC(=N)N)NC(=O)[C@H](CO)NC(=O)[C@H](CSSC[C@H](NC(=O)[C@H](CCCNC(=N)N)NC(=O)[C@H](CCC(N)=O)NC(=O)[C@H](CC(C)C)NC(=O)[C@H](Cc4c[nH]cn4)NC(=O)[C@H](CCCCN)NC1=O)C(=O)N[C@@H](CCCNC(=N)N)C(=O)N[C@@H](CCC(=O)O)C(=O)N[C@@H](CC(N)=O)C(=O)N[C@@H](CCCCN)C(=O)N[C@@H](CC(=O)O)C(=O)N3)NC(=O)[C@H](CCCCN)NC(=O)[C@H](CCCCN)NC(=O)[C@H](CO)NC2=O [SEQ ID NO: 29] (H-GSSEKDCIKHLQRCRENKDCCSKKCSRRGTNPEKRCR-OH; disulfide 7-21, 14-25, 20-36) |  | resistant |  |  |
| CC[C@H](C)[C@@H]1NC(=O)[C@H](CCCCN)NC(=O)[C@@H](NC(=O)[C@H](CCCCN)NC(=O)[C@@H](NC(=O)[C@H](CC(N)=O)NC(=O)[C@@H](NC(=O)[C@@H](NC(=O)[C@@H](NC(=O)CNC(=O)[C@H](CO)NC(=O)CN)C(C)C)[C@@H](C)CC)[C@@H](C)CC)C(C)C)CSSC[C@@H]2NC(=O)[C@H](CCCCN)NC(=O)CNC(=O)[C@H](Cc3ccccc3)NC(=O)[C@H](CCCNC(=N)N)NC(=O)[C@H](CCSC)NC(=O)CNC(=O)[C@H](C)NC(=O)[C@H](CCCCN)NC(=O)[C@H](CCCCN)NC(=O)[C@@H]3CSSC[C@@H](C(=O)N[C@H](C(=O)N4CCC[C@H]4C(=O)N[C@@H](CCCCN)C(=O)O)[C@@H](C)O)NC(=O)[C@H](Cc4c[nH]cn4)NC(=O)[C@H](CSSC[C@H](NC(=O)[C@H](CCC(N)=O)NC(=O)[C@H](CCCNC(=N)N)NC(=O)[C@H](CO)NC1=O)C(=O)N[C@@H](CC(C)C)C(=O)N[C@@H](CCC(=O)O)C(=O)N1CCC[C@H]1C(=O)N3)NC(=O)[C@H](CCCCN)NC(=O)CNC(=O)[C@H](CC(N)=O)NC(=O)[C@H](CCSC)NC2=O [SEQ ID NO: 57] | highly resistant; also recorded: fully resistant |  |  |  |
| GSACLAEYQKCEGSTVPCCPGLSCSAGRFRKTKLCTK [SEQ ID NO: 25] |  |  | resistant | various degrees of degradation |
| GSACQFWSCNSSCISRGYRQGYCWGIQYKYCQCQ [SEQ ID NO: 17] |  |  |  | resistant |
| GSEVIRCSGSKQCYGPCKQQTGCTNSKCMNKVCKCYGCG [SEQ ID NO: 23] |  |  | resistant | various degrees of degradation |
